In paper PMC8294757 (Science Advances, 2021):

Molecular target: ELMO1-DOCK5 (1 to 1642) complex (human, UniProt Q9H7D0 1-1642; Q92556 1-727)
Assay: SPR

ELMO1-DOCK5 (1 to 1642) complex, sequence (Q9H7D0 1-1642, chain 1 of 2): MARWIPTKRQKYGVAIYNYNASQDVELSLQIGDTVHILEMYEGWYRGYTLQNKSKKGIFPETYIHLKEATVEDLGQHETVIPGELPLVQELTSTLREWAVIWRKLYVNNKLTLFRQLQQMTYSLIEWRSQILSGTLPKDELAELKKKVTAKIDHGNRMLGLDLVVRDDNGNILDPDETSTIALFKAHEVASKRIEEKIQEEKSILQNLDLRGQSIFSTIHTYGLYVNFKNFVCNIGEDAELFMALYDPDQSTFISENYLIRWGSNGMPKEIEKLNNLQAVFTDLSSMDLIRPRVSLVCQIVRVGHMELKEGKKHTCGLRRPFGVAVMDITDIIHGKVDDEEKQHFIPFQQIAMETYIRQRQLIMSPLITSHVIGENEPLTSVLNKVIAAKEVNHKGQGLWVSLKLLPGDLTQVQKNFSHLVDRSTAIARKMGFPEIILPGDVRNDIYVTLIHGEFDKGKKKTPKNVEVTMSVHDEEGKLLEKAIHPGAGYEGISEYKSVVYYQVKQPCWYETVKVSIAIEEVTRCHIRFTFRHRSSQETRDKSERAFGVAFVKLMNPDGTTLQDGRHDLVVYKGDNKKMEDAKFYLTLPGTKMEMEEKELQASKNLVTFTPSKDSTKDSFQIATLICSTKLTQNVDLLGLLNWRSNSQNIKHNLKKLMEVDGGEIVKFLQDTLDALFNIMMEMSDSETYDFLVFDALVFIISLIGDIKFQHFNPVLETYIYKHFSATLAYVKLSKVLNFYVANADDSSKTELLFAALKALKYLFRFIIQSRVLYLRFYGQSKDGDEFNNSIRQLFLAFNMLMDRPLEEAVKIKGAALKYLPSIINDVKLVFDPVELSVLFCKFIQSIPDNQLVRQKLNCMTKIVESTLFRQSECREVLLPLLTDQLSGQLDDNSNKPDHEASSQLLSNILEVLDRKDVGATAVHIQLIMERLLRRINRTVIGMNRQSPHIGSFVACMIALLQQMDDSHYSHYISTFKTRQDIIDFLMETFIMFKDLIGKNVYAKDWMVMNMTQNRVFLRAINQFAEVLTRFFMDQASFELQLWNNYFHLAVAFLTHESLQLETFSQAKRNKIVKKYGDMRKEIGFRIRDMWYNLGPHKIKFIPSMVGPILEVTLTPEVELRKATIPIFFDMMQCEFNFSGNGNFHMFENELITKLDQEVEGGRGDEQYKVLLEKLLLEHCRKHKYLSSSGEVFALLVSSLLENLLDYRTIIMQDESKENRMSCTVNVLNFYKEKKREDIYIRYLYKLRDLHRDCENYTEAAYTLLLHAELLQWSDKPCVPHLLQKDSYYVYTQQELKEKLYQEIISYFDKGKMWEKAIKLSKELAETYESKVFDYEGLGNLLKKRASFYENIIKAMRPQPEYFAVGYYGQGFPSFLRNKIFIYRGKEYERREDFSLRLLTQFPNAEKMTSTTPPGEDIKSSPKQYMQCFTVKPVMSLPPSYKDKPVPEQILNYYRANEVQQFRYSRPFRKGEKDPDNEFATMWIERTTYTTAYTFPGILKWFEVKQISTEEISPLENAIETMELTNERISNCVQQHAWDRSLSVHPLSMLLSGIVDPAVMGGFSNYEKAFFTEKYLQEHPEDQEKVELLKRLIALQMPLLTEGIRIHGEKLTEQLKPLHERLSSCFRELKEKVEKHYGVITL
ELMO1-DOCK5 (1 to 1642) complex, sequence (Q92556 whole entry, chain 2 of 2): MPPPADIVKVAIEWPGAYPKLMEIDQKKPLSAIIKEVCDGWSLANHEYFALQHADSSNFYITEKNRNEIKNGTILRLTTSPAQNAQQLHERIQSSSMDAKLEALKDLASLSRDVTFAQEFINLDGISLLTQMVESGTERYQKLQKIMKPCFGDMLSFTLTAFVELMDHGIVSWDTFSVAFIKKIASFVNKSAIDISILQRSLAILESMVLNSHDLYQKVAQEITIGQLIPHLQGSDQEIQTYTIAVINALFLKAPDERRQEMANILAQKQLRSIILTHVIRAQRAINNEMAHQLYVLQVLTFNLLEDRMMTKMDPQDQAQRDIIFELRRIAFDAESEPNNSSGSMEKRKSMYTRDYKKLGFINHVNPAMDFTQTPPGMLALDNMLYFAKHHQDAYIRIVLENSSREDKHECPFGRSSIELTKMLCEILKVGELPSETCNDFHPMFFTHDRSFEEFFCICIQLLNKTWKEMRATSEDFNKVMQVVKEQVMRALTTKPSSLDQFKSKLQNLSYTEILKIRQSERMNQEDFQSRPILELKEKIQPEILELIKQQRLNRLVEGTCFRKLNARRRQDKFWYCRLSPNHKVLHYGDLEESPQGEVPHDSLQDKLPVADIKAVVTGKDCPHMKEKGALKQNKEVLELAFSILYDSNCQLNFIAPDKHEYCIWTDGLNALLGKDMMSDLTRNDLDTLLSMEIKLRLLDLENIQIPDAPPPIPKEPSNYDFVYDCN

Kd: 10.3 µM
B1: human RhoG (residues 1 to 184) Q61L mutant, GTP-bound (natural protein)
chain: not shown
